From PMC12748351, “The TDG protein environment connects active DNA demethylation with chromatin and RNA biology” come the findings set out here.

In this series the target is TDG (recombinant murine TDG) (Mus musculus, UniProt P56581 1-421). The series can be described thus: competition; competes TDG-Sra1 and TDG-Neat1 complexes; higher affinity than lncRNA; BER buffer: 50 mM HEPES pH 8.0, 70 mM KCl, 0.5 mg/mL BSA, 7 mM MgCl2, 1 mM DTT, RNase inhibitor; RT, 15 min (buffer stated for lncRNA EMSA; 60 bp EMSA: 2 µM TDG, 2 µM substrate, RT 15 min). The conditions noted are these: protein: recombinant; blunt, one G·U mismatch. On the technique in general: Mobility shift assays separate free from complexed probe on a gel.
Sequence of TDG (recombinant murine TDG) (P56581 whole entry): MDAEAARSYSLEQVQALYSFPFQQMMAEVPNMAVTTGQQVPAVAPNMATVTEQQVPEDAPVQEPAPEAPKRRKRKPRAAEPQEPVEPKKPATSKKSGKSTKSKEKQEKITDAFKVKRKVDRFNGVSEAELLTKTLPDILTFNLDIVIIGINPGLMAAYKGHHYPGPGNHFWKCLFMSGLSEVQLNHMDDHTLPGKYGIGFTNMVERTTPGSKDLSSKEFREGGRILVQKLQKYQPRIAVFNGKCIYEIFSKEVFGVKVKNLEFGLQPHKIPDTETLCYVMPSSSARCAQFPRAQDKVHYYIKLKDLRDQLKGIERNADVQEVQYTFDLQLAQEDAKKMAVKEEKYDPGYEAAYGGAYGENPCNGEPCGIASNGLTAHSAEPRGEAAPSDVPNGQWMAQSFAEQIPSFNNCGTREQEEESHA

B1: Subs60 G·U (unlabeled competitor) (dsDNA)
DNA 1: TAGACATTGCCCTCGAGGTACCATGGATCCGATGTCGACCTCAAACCTAGACGAATTCCG
DNA 2: CGGAATTCGTCTAGGTTTGAGGTUGACATCGGATCCATGGTACCTCGAGGGCAATGTCTA
modifications: dU at position 24 of strand 2
In the case of B1, the binding result is recorded as “binds”.
